Measured values taken from article PMC6375729.

Key:
[1] = biological target: BRD4 second bromodomain (BRD4/BD2) (human) (UniProt O60885); assay: ITC; peptide titrated into BRD4/BD1 or BRD4/BD2 in the cell; 50 mM HEPES pH 7.5 (at 25°C), 150 mM NaCl, 15°C, stirring at 1,000 rpm; single-site binding model
[2] = biological target: BRD4 first bromodomain (BRD4/BD1) (human) (UniProt O60885); assay: as above
[3] = biological target: BRD4 first bromodomain (BD1), N44-E168 (human) (UniProt O60885); assay: ITC; peptide in the syringe titrated into protein in the cell; 15 °C; 50 mM HEPES pH 7.5, 150 mM NaCl; single binding site model
[4] = biological target: BRD4 second bromodomain (BD2), D334-E460 (human) (UniProt O60885); assay: as above
[5] = biological target: BRD4 first bromodomain (BD1), N44-E168 (human) (UniProt O60885); assay: ITC; temperature series: 25 °C, 150 mM NaCl; [Protein] about 1050-1063 uM and [Peptide] 42-46 uM
[6] = biological target: BRD4 first bromodomain (BD1), N44-E168 (human) (UniProt O60885); assay: ITC; temperature and salt series: 15 °C, 150 mM NaCl; the sheet's heads give [Protein] about 1060 uM and [Peptide] 42-51 uM
[7] = biological target: BRD4 first bromodomain (BD1), N44-E168 (human) (UniProt O60885); assay: ITC; temperature series: 20 °C, 150 mM NaCl; [Protein] about 1050-1063 uM and [Peptide] 42-46 uM
[8] = biological target: BRD4 first bromodomain (BD1), N44-E168 (human) (UniProt O60885); assay: ITC; temperature series: 30 °C, 150 mM NaCl; [Protein] about 1050-1063 uM and [Peptide] 42-46 uM
[9] = biological target: BRD4 second bromodomain (BRD4/BD2) (human) (UniProt O60885); assay: ITC; peptide titrated into BRD4/BD1 or BRD4/BD2 in the cell; 100 mM Na3PO4 pH 8.0, 150 mM NaCl, 15°C, stirring at 1,000 rpm; single-site binding model
[10] = biological target: BRD4 first bromodomain (BD1), N44-E168 (human) (UniProt O60885); assay: ITC; temperature series: 5 °C, 150 mM NaCl; the sheet's heads give [Protein] about […] and [Peptide] about 45 uM
[11] = biological target: BRD4 first bromodomain (BD1), N44-E168 (human) (UniProt O60885); assay: ITC; peptide titrated into protein; 100 mM Na3PO4 pH 8.0, 150 mM NaCl; single binding site model
[12] = biological target: BRD4 second bromodomain (BD2), D334-E460 (human) (UniProt O60885); assay: as above
[13] = biological target: BRD4 first bromodomain (BD1), N44-E168 (human) (UniProt O60885); assay: ITC; salt series: 15 °C, 1000 mM NaCl; the sheet's heads give [Protein] 1042 uM and [Peptide] 42 uM
[14] = biological target: BRD4 first bromodomain (BD1), N44-E168 (human) (UniProt O60885); assay: ITC; salt series: 15 °C, 300 mM NaCl; the sheet's heads give [Protein] 1055 uM and [Peptide] 45 uM
[15] = biological target: BRD4 first bromodomain (BD1), N44-E168 (human) (UniProt O60885); assay: ITC; salt series: 15 °C, 450 mM NaCl; the sheet's heads give [Protein] 1085 uM and [Peptide] 45 uM
BRD4 BD2, 334-460 = BRD4 BD2, 334-460 (UniProt O60885); assay: isothermal titration calorimetry; conditions: reference: H3 K9ac/K14ac peptide
BRD4 BD1, 44-168 = BRD4 BD1, 44-168 (UniProt O60885); assay: isothermal titration calorimetry; conditions: reference: H3 K9ac/K14ac peptide
[16] = biological target: BRD4 first bromodomain (BRD4/BD1), hexa-His tag cleaved (human) (UniProt O60885); assay: ITC; peptide (1226 - 1433 μM) in the syringe, protein (36 - 59 μM) in the cell, 15°C, 50 mM HEPES pH 7.5, 150 mM NaCl, single binding site model

Substance	Kd [1] [µM]	Kd [2] [µM]	Kd [3] [µM]	stoichiometry N [3]	Kd [4] [µM]	stoichiometry N [4]	other results
TOP2A K1201ac/K1204ac peptide	63.3	19.5	19.5	0.85	63.3	0.51	–
E2F1 K117ac/K120ac peptide	34.8	45.8	45.8	0.9	34.8	0.56	–
GATA1 K312ac/K315ac peptide	62.9	24.6	24.6	0.94	62.9	0.96	–
SRPK1 K585ac/K588ac peptide	–	–	–	–	–	–	Kd [5]: 40.2 µM; stoichiometry N [5]: 1.12; Kd [6]: 45.7 µM; stoichiometry N [6]: 1.16; Kd [7]: 48.8 µM; stoichiometry N [7]: 1.14; Kd [8]: 46.3 µM; stoichiometry N [8]: 1.12; Kd [9]: 29.7 µM; Kd [10]: 49 µM; stoichiometry N [10]: 1.01; stoichiometry N [11]: 0.92; Kd [12]: 29.7 µM; stoichiometry N [12]: 1.11; Kd [13]: 71.4 µM; stoichiometry N [13]: 0.96; Kd [14]: 48.5 µM; stoichiometry N [14]: 1.02; Kd [15]: 58.5 µM; stoichiometry N [15]: 1.01
ATRX K1030ac/K1033ac peptide	25.3	87.7	87.7	0.99	25.3	0.49	–
SIRT7 K272ac/K275ac peptide	–	–	15.8	0.52	44.4	0.87	–
histone H3 (from UniProt P68431) H3 K9ac/pS10/K14ac peptide	–	–	–	–	–	–	binding against the reference (BRD4 BD2, 334-460; sites S10): lost; binding against the reference (BRD4 BD1, 44-168; sites S10): same
histone H3 (from UniProt P68431) H3 K9ac/pT11/K14ac peptide	–	–	–	–	–	–	binding against the reference (BRD4 BD2, 334-460; sites T11): lost; binding against the reference (BRD4 BD1, 44-168; sites T11): lost
SRPK1 (K585acY) peptide used for ITC	–	–	–	–	–	–	Kd [16]: 9.9 µM
